Source: PMC5913134, “The IL-33-PIN1-IRAK-M axis is critical for type 2 immunity in IL-33-induced allergic airway inflammation” (Nature Communications, 2018)

Molecular target: PIN1 (GST-PIN1, GFP-PIN1, 15N-PIN1-WW) (UniProt Q13526)
Assay: co-IP with anti-GFP, blot
Conditions: reference: wild type; sites S110

IRAK-M (transfected constructs and synthetic peptides) (from UniProt Q9Y616) S110A
binding against the reference: lost
